Here are results for three molecules from patent publication US20250388628A1 (Genentech, published 2025).

Test [1] deals with AAV receptor (AAVR) on HEK293 cells (Homo sapiens (Human)) (UniProt Q8IZA0). Kind of test: cell-based or functional assay.
For test [2], the target named is T1, AAV receptor (AAVR) fragment comprising the domains PKD1 and PKD2 (residues V305-V499) (Homo sapiens (Human), UniProt Q8IZA0 305-499).
T1 sequence: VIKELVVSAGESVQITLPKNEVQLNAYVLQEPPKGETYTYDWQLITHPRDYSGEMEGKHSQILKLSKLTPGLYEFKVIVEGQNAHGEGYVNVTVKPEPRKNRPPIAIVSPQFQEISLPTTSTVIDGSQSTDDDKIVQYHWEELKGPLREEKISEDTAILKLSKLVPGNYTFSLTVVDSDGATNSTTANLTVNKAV
Kind of test: SPR; against wild-type VLP.

In test [3] the target is T1, AAV receptor (AAVR) fragment comprising …. As to the kind of experiment: SPR; captured AAV9 VP3 VLP, AAVR analyte. Background: Surface plasmon resonance follows binding to a sensor surface in real time, without labels.
Test [4] shares this target. As to the kind of experiment: SPR, single replicate; affinity against wild-type AAV9 VLP.
Test [5] shares this target. As to the kind of experiment: SPR, single replicate; captured AAV9 VP3 VLP, AAVR analyte.
Test [6] shares this target. As to the kind of experiment: SPR, three replicates; affinity against wild-type AAV9 VLP.
Test [7] has the same target. Kind of test: SPR, three replicates; captured AAV9 VP3 VLP, AAVR analyte.
The target is the same in test [8]. As to the kind of experiment: SPR; affinity against wild-type AAV2 VLP.

AAV receptor (AAVR) on HEK293 cells (Homo sapiens (Human)), sequence (Q8IZA0 whole entry, the tested form may be a part): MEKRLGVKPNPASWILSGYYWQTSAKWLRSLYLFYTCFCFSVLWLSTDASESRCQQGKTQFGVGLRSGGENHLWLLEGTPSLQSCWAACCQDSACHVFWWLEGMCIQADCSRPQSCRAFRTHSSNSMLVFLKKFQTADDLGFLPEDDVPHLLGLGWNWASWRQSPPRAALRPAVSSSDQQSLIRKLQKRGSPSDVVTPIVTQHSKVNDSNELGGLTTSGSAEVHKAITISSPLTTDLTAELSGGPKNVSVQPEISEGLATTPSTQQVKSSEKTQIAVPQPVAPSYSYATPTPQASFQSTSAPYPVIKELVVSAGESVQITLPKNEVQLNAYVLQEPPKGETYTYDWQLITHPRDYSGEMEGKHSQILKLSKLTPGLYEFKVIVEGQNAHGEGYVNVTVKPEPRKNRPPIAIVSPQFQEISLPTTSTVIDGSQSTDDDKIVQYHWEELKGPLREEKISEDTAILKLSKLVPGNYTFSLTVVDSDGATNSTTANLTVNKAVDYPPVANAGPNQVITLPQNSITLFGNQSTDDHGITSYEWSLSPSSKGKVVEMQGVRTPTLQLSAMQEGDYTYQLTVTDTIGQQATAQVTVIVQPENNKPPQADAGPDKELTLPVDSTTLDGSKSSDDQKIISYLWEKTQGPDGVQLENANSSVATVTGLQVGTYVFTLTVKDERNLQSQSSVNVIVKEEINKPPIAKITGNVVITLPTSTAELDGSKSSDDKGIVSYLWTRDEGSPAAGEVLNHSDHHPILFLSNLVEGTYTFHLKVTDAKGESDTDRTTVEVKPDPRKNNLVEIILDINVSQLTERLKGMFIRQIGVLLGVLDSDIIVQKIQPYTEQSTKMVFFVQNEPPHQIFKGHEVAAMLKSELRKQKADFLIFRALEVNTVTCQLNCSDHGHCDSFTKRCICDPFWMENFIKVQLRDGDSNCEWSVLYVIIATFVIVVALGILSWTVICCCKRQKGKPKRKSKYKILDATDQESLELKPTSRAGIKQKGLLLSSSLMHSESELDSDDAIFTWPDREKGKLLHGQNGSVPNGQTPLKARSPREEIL

Consider “AAV9 comprising a Q387K amino acid substitution mutation (full AAV with VP1, VP2 and VP3)”, for which, in test [1], the Expression of a transgene (GFP) in transduced HEK293 cells worked out at 3 fold.

B1: AAV9 VP3 VLP A273N/Q387K/E500R (other)
VP3: MASGGGAPVADNNEGADGVGSSSGNWHCDSQWLGDRVITTSTRTWALPTYNNHLYKQISNSTSGGSSNDNNYFGYSTPWGYFDFNRFHCHFSPRDWQRLINNNWGFRPKRLNFKLFNIQVKEVTDNNGVKTIANNLTSTVQVFTDSDYQLPYVLGSAHEGCLPPFPADVFMIPQYGYLTLNDGSKAVGRSSFYCLEYFPSQMLRTGNNFQFSYEFENVPFHSSYAHSQSLDRLMNPLIDQYLYYLSKTINGSGQNQQTLKFSVAGPSNMAVQGRNYIPGPSYRQQRVSTTVTQNNNSRFAWPGASSWALNGRNSLMNPGPAMASHKEGEDRFFPLSGSLIFGKQGTGRDNVDADKVMITNEEEIKTTNPVATESYGQVATNHQSAQAQAQTGWVQNQGILPGMVWQDRDVYLQGPIWAKIPHTDGNFHPSPLMGGFGMKHPPPQILIKNTPVPADPPTAFNKDKLNSFITQYSTGQVSVEIEWELQKENSKRWNPEIQYTSNYYKSNNVEFAVNTEGVYSEPRPIGTRYLTRNL
notes: VP3-only VLP; also called AN.QK.ER
For the molecule B1, the “KD Fold Change” value in test [2] came out at 117 fold. In addition, the dissociation constant Kd was determined as 20 nM in test [3], 80 nM in test [5] and 20 nM in test [7]. Moreover, the koff in test [3] was 0.000667 s⁻¹; in test [5] it was 0.000962 s⁻¹; in test [7], 0.000667 s⁻¹. Also, the results for the kon in test [3], in test [5] and in test [7] were 33300 M⁻¹ s⁻¹, 11800 M⁻¹ s⁻¹ and 33300 M⁻¹ s⁻¹, respectively. Besides, the figures for the “Fold change vs WT” value in test [4] and in test [6] were 53 fold and 117 fold, respectively.

B2: AAV2 VP3 VLP T592D/A593E (other)
chain: MATGSGAPMADNNEGADGVGNSSGNWHCDSTWMGDRVITTSTRTWALPTYNNHLYKQISSQSGASNDNHYFGYSTPWGYFDFNRFHCHFSPRDWQRLINNNWGFRPKRLNFKLFNIQVKEVTQNDGTTTIANNLTSTVQVFTDSEYQLPYVLGSAHQGCLPPFPADVFMVPQYGYLTLNNGSQAVGRSSFYCLEYFPSQMLRTGNNFTFSYTFEDVPFHSSYAHSQSLDRLMNPLIDQYLYYLSRTNTPSGTTTQSRLQFSQAGASDIRDQSRNWLPGPCYRQQRVSKTSADNNNSEYSWTGATKYHLNGRDSLVNPGPAMASHKDDEEKFFPQSGVLIFGKQGSEKTNVDIEKVMITDEEEIRTTNPVATEQYGSVSTNLQRGNRQAADEDVNTQGVLPGMVWQDRDVYLQGPIWAKIPHTDGHFHPSPLMGGFGLKHPPPQILIKNTPVPANPSTTFSAAKFASFITQYSTGQVSVEIEWELQKENSKRWNPEIQYTSNYNKSVNVDFTVDTNGVYSEPRPIGTRYLTRNL
notes: VP3-only VLP
On to B2, for which, in test [8], the “Fold change vs WT” value was ~6 fold.

One may read the Kd as the constant that tells how readily two partners part at equilibrium. Higher therefore signals weaker binding. As usually defined, the koff is a measure of how fast the partners let go of each other. Low readings indicate slow dissociation, high ones fast dissociation. Usually kon stands for a measure of how fast the partners come together.
